Tests used:
[1] = target: T1, human IL-21R expressed on cells (human, UniProt Q9HBE5 20-538); assay: cell ELISA, CHO cells
T1 construct: also called human IL-21R-BaF3; human IL-21R-TF1
Protocol: (§1) A subset of binding proteins was tested for binding to rat, cynomolgus monkey, human IL-21R, or human IL-2R-γ common subunit expressed transiently on the surfaces of CHO-PA-Dukx cells. Cells were transfected 48 hr prior to the assay. On the day of the assay, cells were washed gently 5× in PBS containing 0.9 mM CaCl₂ and 0.45 mM MgCl₂ (PBS/CaMg) on an automated plate washer (Titertek, Huntsville, Ala.), and blocked for 1 hr at RT in PBS/CaMg/5% nonfat dry milk. Conditioned media from transiently expressed anti-IL-21R IgGs were serially diluted in blocking buffer and added to the cells in the blocked plates for 1 hr at RT. Cells were washed 5× with PBS/CaMg and then incubated with horseradish peroxidase-conjugated anti-human IgG for 1 hr at RT. Cells were then washed 10× in PBS/CaMg and all of the wash buffer was removed. Cells were incubated with 100 μl TMB until the color reaction reached saturation, stopped with 100 μl of 0.18 M H₂SO₄, and read at A450 on a Perkin Elmer ENVISION™ plate reader.

[2] = target: T2, cynomolgus monkey IL-21R expressed on cells (cynomolgus monkey, UniProt G7Q0S8 41-559); assay: cell ELISA, CHO cells
T2 construct: whole, on cells
Protocol: as §1

[3] = target: T3, rat IL-21R expressed on cells (rat); assay: cell ELISA, CHO cells
T3 construct: whole, on cells
Protocol: as §1

[4] = target: T1, human IL-21R expressed on cells; assay: cell-based or functional assay
[5] = target: T4, murine IL-21R expressed on cells (murine, UniProt Q9JHX3 20-529); assay: cell-based or functional assay
[6] = target: T1, human IL-21R expressed on cells; assay: cell-based ELISA on CHO cells transiently expressing human IL-21R; HRP anti-human IgG, A450
Protocol: (§2) FIG. 6(a-l) depicts the binding of 21 anti-IL-21R IgGs to CHO cells transiently expressing human IL-21R (FIGS. 6a-c), rat IL-21R (FIGS. 6d-f), cynomolgus monkey IL-21R (FIGS. 6g-i), and human gamma common chain (FIGS. 6j-1). CHO cells were transiently transfected with IL-21R or the control gamma common chain, and binding was detected with HRP-conjugated anti-human IgG in a cell-based ELISA.
as §1

[7] = target: T2, cynomolgus monkey IL-21R expressed on …; assay: cell-based ELISA on CHO cells transiently expressing cynomolgus monkey IL-21R; HRP anti-human IgG, A450
Protocol: as §2, §1

[8] = target: T5, human IL-13-His/FLAG (human, UniProt P35225 35-146, limits assumed); assay: SPR, Ab captured
T5 construct: Unrelated His/FLAG-tagged control; also called human IL-13-H/F
Protocol: (§3) The specificity of binding of a subset of transiently expressed anti-IL-21R binding proteins (here antibodies) was tested on a BIACORE™ 2000 surface plasmon resonance instrument. Anti-human-IgG, anti-murine immunoglobulin antibodies, and murine IL-21R-H/F were immobilized onto a research-grade carboxymethyl-dextran chip (CM5) using standard amine coupling. The sensor chip surface was activated with EDC/NHS for 7 min at a flow rate of 20 μl/min. The first flow cell was used as reference surface to correct for bulk refractive index, matrix effects, and nonspecific binding. […] Remaining activated groups were blocked with 1.0 M ethanolamine (pH 8.0). The molecular weights of the anti-human IgG and the anti-murine IgG were both 150 kD, and the molecular weight of the IL-21R monomer was 27 kD.
(§4) Conditioned media containing anti-IL-21R antibodies and antibody controls (murine anti-human IL-2Rβ and murine anti-human IL-4R(R&D Systems, Minneapolis, Minn.); human anti-human IL-13 (Wyeth, Cambridge, Mass.)) were diluted in HBS/EP buffer supplemented with 0.2% bovine serum and injected onto all four flow cells of the BIACORE™ chip, capturing 500-700 (RU) of antibody on the species-appropriate capture antibody. Following a 5 sec washing period, 50 nM solutions of a positive control protein (murine IL-21R-H/F), two human proteins related to IL-21R (human IL-2Rβ and human sIL-4R(R&D Systems)), or an unrelated His/FLAG-tagged protein (human IL-13-H/F) were injected over the captured antibodies on the chip. The association and dissociation phases were monitored for 120 and 180 sec, respectively, followed by two 5 μl injections of glycine (pH 1.5) to regenerate a fully active capturing surface. All binding experiments were done at 25° C. in HBS/EP buffer. Blank and buffer effects were subtracted for each sensorgram using double referencing.

[9] = target: T6, human IL-2Rβ (human, UniProt P14784 27-239); assay: SPR, Ab captured
T6 sequence (looked up): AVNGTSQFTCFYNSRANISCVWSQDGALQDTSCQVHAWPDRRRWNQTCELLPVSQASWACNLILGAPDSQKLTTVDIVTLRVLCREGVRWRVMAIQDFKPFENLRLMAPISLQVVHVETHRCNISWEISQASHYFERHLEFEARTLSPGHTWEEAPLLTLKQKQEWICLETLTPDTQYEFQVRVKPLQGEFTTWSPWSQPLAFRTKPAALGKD
Protocol: as §3, §4

[10] = target: T7, human soluble IL-4R (human, UniProt P24394 26-232, limits assumed); assay: SPR, Ab captured
T7 construct: also called human sIL-4R
Protocol: as §3, §4

[11] = target: T8, human gamma (γ) common chain expressed on CHO cells (human, UniProt P31785 23-369); assay: cell ELISA, CHO cells
T8 construct: whole, on cells; Control protein; also called human IL-2R-γ common subunit; human γ-common
T8 sequence (looked up): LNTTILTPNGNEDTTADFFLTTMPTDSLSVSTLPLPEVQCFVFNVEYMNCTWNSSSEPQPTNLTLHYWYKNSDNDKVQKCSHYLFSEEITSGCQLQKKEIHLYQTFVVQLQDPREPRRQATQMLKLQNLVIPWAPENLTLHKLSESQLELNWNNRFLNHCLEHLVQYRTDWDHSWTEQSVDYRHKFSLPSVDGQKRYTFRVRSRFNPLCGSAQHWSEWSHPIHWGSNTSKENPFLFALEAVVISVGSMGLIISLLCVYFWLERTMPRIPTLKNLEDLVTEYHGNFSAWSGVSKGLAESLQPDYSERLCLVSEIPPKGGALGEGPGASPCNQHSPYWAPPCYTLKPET
Protocol: as §1

[12] = target: T9, murine IL-21R extracellular domain His-Flag fusion protein (murine, UniProt Q9JHX3 20-237); assay: competition ELISA; competitor plate-bound 18A5 IgG
T9 construct: Biotinylated in the ELISAs; also called mIL-21R-H/F; murine IL-21R-H/F
Protocol: Blocked plates were washed 3× with PBS, and 50 μl/well of scFv/IL-21R mixtures were transferred to the appropriate plates and incubated for 1 hr at RT. Plates were washed 5× with PBS prior to the addition of a 1:6000 dilution of horseradish peroxidase-conjugated streptavidin (Southern Biotech, Birmingham, Ala.) secondary antibody to detect bound biotinylated mIL-21R-H/F. Plates were then incubated for 1 hr at RT and washed 7× with PBS. Signal was developed using 3,3′,5,5′-tetramethylbenzidine (TMB), the reaction stopped with H₂SO₄, and the absorbance read at 450 nm on an ENVISION™ plate reader (Perkin Elmer).

[13] = target: T1, human IL-21R expressed on cells; assay: cell-based or functional assay; remark: listed apart in the source
[14] = target: T4, murine IL-21R expressed on cells; assay: cell-based or functional assay; remark: listed apart in the source

T1 sequence (Q9HBE5 20-538 limits assumed): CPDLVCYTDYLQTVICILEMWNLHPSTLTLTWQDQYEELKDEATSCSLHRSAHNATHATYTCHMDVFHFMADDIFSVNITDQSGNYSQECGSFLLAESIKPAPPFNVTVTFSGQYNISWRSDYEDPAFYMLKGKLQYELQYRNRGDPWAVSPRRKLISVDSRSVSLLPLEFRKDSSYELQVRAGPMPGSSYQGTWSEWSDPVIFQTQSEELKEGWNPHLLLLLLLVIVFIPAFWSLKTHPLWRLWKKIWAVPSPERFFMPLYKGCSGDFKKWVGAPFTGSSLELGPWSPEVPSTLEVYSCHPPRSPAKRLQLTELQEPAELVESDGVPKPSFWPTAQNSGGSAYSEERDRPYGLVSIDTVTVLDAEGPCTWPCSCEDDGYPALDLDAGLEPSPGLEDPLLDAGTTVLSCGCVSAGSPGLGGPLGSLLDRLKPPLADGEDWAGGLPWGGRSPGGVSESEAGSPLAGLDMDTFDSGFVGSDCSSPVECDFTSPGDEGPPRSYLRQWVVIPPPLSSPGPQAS
T5 sequence (P35225 35-146 limits assumed): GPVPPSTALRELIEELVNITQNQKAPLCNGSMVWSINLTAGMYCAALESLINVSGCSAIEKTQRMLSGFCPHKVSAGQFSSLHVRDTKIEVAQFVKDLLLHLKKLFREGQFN

| Binder | A450 (13 nM Ab) [1] | A450 (13 nM Ab) [2] | A450 (13 nM Ab) [3] | Human IL-21R-BaF3 Proliferation IC50 [4] | Human IL-21R-TF1 Proliferation IC50 [4] | Murine IL-21R-BaF3 Proliferation IC50 [5] | EC50 (read off the curve) [6] | EC50 (read off the curve) [7] | binding result [8] | binding result [9] | binding result [10] | A450 (13 nM Ab) [11] | IC50 [12] | IC50, Human IL-21R-BaF3 Neutralization Assay [13] | IC50, Human IL-21R-TF1 Neutralization Assay [13] | IC50, Murine IL-21R-BaF3 Neutralization Assay [14] |
| --- | --- | --- | --- | --- | --- | --- | --- | --- | --- | --- | --- | --- | --- | --- | --- | --- |
| AbD (antibody, IgG1, V domains shown, As for AbA: IgG1/lambda, CDR3 graft, residue limits derived; also called VHP/VL13) VH: QVQLQESGPGLVKPSETLSLTCAVSGYSISSGYYWGWIRQPPGKGLEWIGSISHTGNTYYNPPLKSRVTISVDTSKNQFSLKLSSVTAADTAVYYCARGGGISRPEYWGQGTLVTVSS VL: SSELTQDPAVSVALGQTVRITCQGDSLRTYYASWYQQKPGQAPVLVIYGKHKRPSGIPDRFSGSSSGNTASLTITGAQAEDEADYYCVTRNRYGNPHVLFGGGTQLTVL | 1.25 A450 | 1.38 A450 | 0.874 A450 | 0.91 nM | 2.67 nM | 0.01 nM | ~0.9 nM | ~2 nM | no binding (tested: 50 nM) | no binding (tested: 50 nM) | no binding (tested: 50 nM) |  |  |  |  |  |
| AbM (antibody, IgG1, V domains shown, As for AbA: IgG1/lambda, CDR3 graft, residue limits derived; also called VH6/VL13) VH: QVQLQESGPGLVKPSETLSLTCAVSGYSISSGYYWGWIRQPPGKGLEWIGSISHTGNTYYNPPLKSRVTISVDTSKNQFSLKLSSVTAADTAVYYCARFFGFGRPEYWGQGTLVTVSS VL: SSELTQDPAVSVALGQTVRITCQGDSLRTYYASWYQQKPGQAPVLVIYGKHKRPSGIPDRFSGSSSGNTASLTITGAQAEDEADYYCVTRNRYGNPHVLFGGGTQLTVL | 1.2 A450 | 1.45 A450 | 0.78 A450 | 1.08 nM | 4.22 nM | 0.125 nM |  | ~3 nM |  |  |  |  |  |  |  |  |
| AbH (antibody, IgG1, V domains shown, As for AbA: IgG1/lambda, CDR3 graft, residue limits derived; also called VHP/VL19) VH: QVQLQESGPGLVKPSETLSLTCAVSGYSISSGYYWGWIRQPPGKGLEWIGSISHTGNTYYNPPLKSRVTISVDTSKNQFSLKLSSVTAADTAVYYCARGGGISRPEYWGQGTLVTVSS VL: SSELTQDPAVSVALGQTVRITCQGDSLRTYYASWYQQKPGQAPVLVIYGKHKRPSGIPDRFSGSSSGNTASLTITGAQAEDEADYYCVARAVRGNPHVLFGGGTQLTVL | 1.35 A450 | 1.32 A450 | 1.1 A450 | 0.94 nM | 3.64 nM | 0.327 nM | ~0.4 nM | ~0.5 nM | no binding (tested: 50 nM) | no binding (tested: 50 nM) | no binding (tested: 50 nM) |  |  |  |  |  |
| AbN (antibody, IgG1, V domains shown, As for AbA: IgG1/lambda, CDR3 graft, residue limits derived; also called VH6/VL24) VH: QVQLQESGPGLVKPSETLSLTCAVSGYSISSGYYWGWIRQPPGKGLEWIGSISHTGNTYYNPPLKSRVTISVDTSKNQFSLKLSSVTAADTAVYYCARFFGFGRPEYWGQGTLVTVSS VL: SSELTQDPAVSVALGQTVRITCQGDSLRTYYASWYQQKPGQAPVLVIYGKHKRPSGIPDRFSGSSSGNTASLTITGAQAEDEADYYCIARSNKGNPHVLFGGGTQLTVL | 1.21 A450 | 1.5 A450 | 0.702 A450 | 0.5 nM | 1.59 nM | 0.435 nM |  |  |  |  |  | 0.136 A450 |  |  |  |  |
| scFv L25 (scFv) scFv: QVQLQESGPGLVKTSETLSLTCAVSGYSISSGYYWGWIRQPPGKGLEWIGSISHTGNTYYNPPLKSRVTISVDTSKNQFSLKLSSVTAADTAVYYCARGGGISRPEYWGKGTLVTVSSGGGGSGGGGSGGGGSALSSELTQDPPVSVALGQTVTLTCQGDSLRTYYASWYQQKSGQAPILLLYGKHKRPSGIPDRFSGSTSGDTASLTITGAQAEDEADYYCTTRSNKGNPHVLFGGGTQLTVL |  |  |  |  |  |  |  |  |  |  |  |  | 9 nM | 3.7 nM | 33.1 nM | 15.6 nM |
